{"source": "patent US20040005543", "about": "“Compositions and methods for binding agglomeration proteins” (published 2004)", "binders": {"B1": {"name": "RQT157 (ssRNA)", "RNA": "GGGGUUUCGAACCGGAAUUUGAGGGAUGCCUAGGCAUCCCCCGUGCGUCCCUUUACGAGGGAUUGUCGACUCUAGAGGAUCCGGUACCUGAGGGAUGCCUAGGCAUCCCCGCGCGCCGGUUUCGGACCUCCAGUGCGUGUUACCGCACUGUCGACCC"}, "B2": {"name": "MNV:AP1 (PrP-Amp) (ssRNA)", "RNA": "GGGUUCAUAGCCUAUUCGGCUUCGCGCAUGGGAAUUUGAGGGACGAUGGGGAAGUGGGAGCGCGUUUUAAAGGACCUUUUUCCCUCGCGUAGCUAGCUACGCGAGGUGACCCCCCGAAGGGGGGUGCCCC"}, "B3": {"name": "RQ11+12 (ssRNA)", "RNA": "GGGGUUUCCAACCGGAAUUUGAGGGAUGCCUAGGCAUCCCCCGUGCGUCCCUUUACGAGGGAUUGUCGACUCUAGUCGACGUCUGGGCGAAAAAUGUACGAGAGGACCUUUUCGGUACAGACGGUACCUGAGGGAUGCCUAGGCAUCCCCCGCGCCGGUUUCGGACCUCCAGUGCGUGUUACCGCACUGUCGACCC"}, "B4": {"name": "MNV (ssRNA)", "RNA": "GGGUUCAUAGCCUAUUCGGCUUUUAAAGGACCUUUUUCCCUCGCGUAGCUAGCUACGCGAGGUGACCCCCCGAAGGGGGGUGCCCC"}}, "key": {"[1]": {"biological_target": "T1, hrPrP23-231 (recombinant human prion protein, full length) (Homo sapiens, UniProt P04156 P04156:23-231)", "assay": "filter; no tRNA; 2 mM MgCl2, 250 mM NaCl, 37 C", "conditions": "tags: provided by Man-Sun Sy, Case Western; label: internal 32P"}, "[2]": {"biological_target": "T1, hrPrP23-231 (recombinant human prion …)", "assay": "filter; with 10 ng/uL tRNA; 250 mM NaCl, 37 C", "conditions": "tags: provided by Man-Sun Sy, Case Western; label: internal 32P"}, "[3]": {"biological_target": "hrPrP90-231 (C-terminal portion) (Homo sapiens, UniProt P04156 P04156:90-231)", "assay": "filter; 20 nM protein; no detectable binding", "conditions": "tags: provided by Man-Sun Sy, Case Western, label: internal 32P"}, "[4]": {"biological_target": "T1, hrPrP23-231 (recombinant human prion …)", "assay": "filter; […]; 2 mM MgCl2, 250 mM NaCl, 37 C; […]", "conditions": "tags: provided by Man-Sun Sy, Case Western; label: internal 32P; G4 (AP1 insert)"}, "lysozyme": {"biological_target": "lysozyme (UniProt P00698 P00698:19-147)", "assay": "filter; 2 nM RNA, 20 nM protein, Buffer A with 10 ng/uL tRNA; background level", "conditions": "label: internal 32P"}, "[5]": {"biological_target": "T2, hrPrP23-144 (N-terminal portion) (Homo sapiens, UniProt P04156 P04156:23-144)", "assay": "filter; 20 nM protein, Buffer B with tRNA", "conditions": "tags: provided by Man-Sun Sy, Case Western; label: internal 32P"}, "[6]": {"biological_target": "BSA (bovine serum albumin) (UniProt P02769 P02769:25-607)", "assay": "filter; Buffer A with 10 ng/uL tRNA; background level", "conditions": "tags: Ultra-pure BSA, Ambion; label: internal 32P"}, "[7]": {"biological_target": "T2, hrPrP23-144 (N-terminal portion)", "assay": "filter; 20 nM protein, no tRNA", "conditions": "tags: provided by Man-Sun Sy, Case Western; label: internal 32P"}}, "data": [{"binder": "B1", "values": [{"measurement": "Kd", "setting": "[1]", "result": 56, "unit": "nM"}]}, {"binder": "GGGAAUUUGAGGACGAUGGUAAGUGG (ssRNA)", "note": "[AP46]", "values": [{"measurement": "Kd", "setting": "[1]", "result": 14, "unit": "nM"}, {"measurement": "Kd", "setting": "[2]", "result": 100, "unit": "nM"}]}, {"binder": "B2", "values": [{"measurement": "binding result", "setting": "[3]; G4 (AP1 insert)", "result": "no binding"}, {"measurement": "Kd", "setting": "[4]", "result": 3.8, "unit": "nM"}]}, {"binder": "B3", "values": [{"measurement": "binding result", "setting": "lysozyme", "result": "no binding"}, {"measurement": "binding result", "setting": "[5]", "result": "binds"}, {"measurement": "binding result", "setting": "[3]", "result": "no binding"}, {"measurement": "binding result", "setting": "[6]", "result": "no binding"}]}, {"binder": "B4", "values": [{"measurement": "binding result", "setting": "[3]", "result": "no binding"}, {"measurement": "binding result", "setting": "[7]", "result": "binds"}]}]}
